In patent US20220096600A1:

Biological target: CCR5 on mouse periosteal skeletal stem cells / mouse cells in vivo (mouse) (UniProt P51682)
Assay: cell-based or functional assay

UniProt P51682, sequence (P51682 whole entry): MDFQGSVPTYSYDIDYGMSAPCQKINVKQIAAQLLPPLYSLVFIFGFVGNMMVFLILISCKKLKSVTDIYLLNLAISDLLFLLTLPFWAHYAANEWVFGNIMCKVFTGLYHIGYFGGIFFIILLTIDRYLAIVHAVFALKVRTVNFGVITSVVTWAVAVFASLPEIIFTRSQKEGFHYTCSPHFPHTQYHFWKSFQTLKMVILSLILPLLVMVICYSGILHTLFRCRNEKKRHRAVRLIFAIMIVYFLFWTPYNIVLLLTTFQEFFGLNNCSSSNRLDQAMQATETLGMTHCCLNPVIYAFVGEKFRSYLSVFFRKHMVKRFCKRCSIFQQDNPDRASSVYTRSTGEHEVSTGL

**Q.** How did the average in vivo migration speed of Mx1+aSMA+ P-SSCs under CCL5 administration turn out when CCL5 (ligand) was run?
**A.** 57 µm/h
